{"source": "paper PMC8605023", "about": "(Nature Communications, 2021)", "settings_in_all_cases": "both partners purified", "key": {"Radixin FERM domain": {"molecular_target": "T1, Radixin FERM domain (human, UniProt P35241 5-295)", "T1 construct": "also called RDX", "T1 sequence (P35241 5-295)": "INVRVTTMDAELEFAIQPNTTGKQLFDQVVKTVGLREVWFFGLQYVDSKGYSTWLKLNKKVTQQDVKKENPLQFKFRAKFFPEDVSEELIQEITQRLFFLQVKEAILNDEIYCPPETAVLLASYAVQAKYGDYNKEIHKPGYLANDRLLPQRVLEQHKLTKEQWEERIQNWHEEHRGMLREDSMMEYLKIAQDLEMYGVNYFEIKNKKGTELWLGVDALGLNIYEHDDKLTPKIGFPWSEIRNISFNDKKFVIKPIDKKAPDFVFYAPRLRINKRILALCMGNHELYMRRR"}, "Ezrin FERM domain": {"molecular_target": "Ezrin FERM domain (human, UniProt P15311 2-296)", "sequence (P15311 2-296)": "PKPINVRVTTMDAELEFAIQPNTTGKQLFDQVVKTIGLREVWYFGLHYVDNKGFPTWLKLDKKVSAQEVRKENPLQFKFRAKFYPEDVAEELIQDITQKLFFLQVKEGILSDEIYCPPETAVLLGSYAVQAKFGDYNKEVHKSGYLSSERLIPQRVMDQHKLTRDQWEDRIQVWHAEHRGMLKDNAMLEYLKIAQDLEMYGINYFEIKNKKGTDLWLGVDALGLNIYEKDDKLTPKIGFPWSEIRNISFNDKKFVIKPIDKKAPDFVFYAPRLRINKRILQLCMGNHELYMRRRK"}, "G3BP2 NTF2 domain": {"molecular_target": "T2, G3BP2 NTF2 domain (human, UniProt Q9UN86 11-133)", "T2 sequence (looked up)": "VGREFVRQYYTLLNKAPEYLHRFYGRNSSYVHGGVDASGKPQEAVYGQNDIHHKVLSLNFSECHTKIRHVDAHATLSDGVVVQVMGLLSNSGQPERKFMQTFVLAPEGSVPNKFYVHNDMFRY"}}, "data": [{"binder": "VETSNSFDVLKSEDAQY", "note": "[NSP3 peptide 2019-2034 (Sars-CoV2)]", "values": [{"measurement": "IC50", "setting": "Radixin FERM domain", "value": 1530, "unit": "µM"}, {"measurement": "IC50", "setting": "Ezrin FERM domain", "value": 1530, "unit": "µM"}, {"measurement": "Ki", "setting": "Ezrin FERM domain", "value": 37.6, "unit": "µM"}]}, {"binder": "QGKPLEFGATSAALQY", "note": "[NSP3 peptide 956-971 (Sars-CoV2)]", "values": [{"measurement": "IC50", "setting": "G3BP2 NTF2 domain", "value": 100, "unit": "µM"}, {"measurement": "Ki", "setting": "G3BP2 NTF2 domain", "value": 35, "unit": "µM"}]}]}
